Substitutions are numbered along the chain they refer to. Numbers in names are those of the source.
B1: WT: non-mutated Candida antarctica lipase B (CALB), SEQ ID NO: 2, immobilized on carrier beads (protein, listed as Candida antarctica)
chain: LPSGSDPAFSQPKSVLDAGLTCQGASPSSVSKPILLVPGTGTTGPQSFDSNWIPLSAQLGYTPCWISPPPFMLNDTQVNTEYMVNAITTLYAGSGNNKLPVLTWSQGGLVAQWGLTFFPSIRSKVDRLMAFAPDYKGTVLAGPLDALAVSAPSVWQQTTGSALTTALRNAGGLTQIVPTTNLYSATDEIVQPQVSNSPLDSSYLFNGKNVQAQAVCGPLFVIDHAGSLTSQFSYVVGRSALRSTTGQARSADYGITDCNPLPANDLTPEQKVAAAALLAPAAAAIVAGPKQNCEPDLMPYARPFAVGKRTCSGIVTP
modifications: immobilized on carrier beads
B2: T40A: CALB mutant with single mutation Thr40Ala (SEQ ID NO: 4) (protein)
chain: B1 chain with T40X
modifications: T40 Mutant

Columns and labels:
Format in all cases: biochemical
[1] = Enzyme-catalyzed acylation of 1,3-propanediol with ethyl acetate as acyl donor (Example 2); conditions: for Conversion at 3:1 (monoester:diester) / Conversion at 9:1 (monoester:diester) / Maximum monoester yield: 1,3-propanediol 20 mM in ethyl acetate; for Maximum monoester yield: 29° C.
Method: Each diol was dissolved to a concentration of 20 mM together with 5 mM of 3-hexanone in ethyl acetate, ≧99% from Fluka, which was used as acyl donor and solvent. Reactions were started by adding 4 ml reaction solution to 20 mg enzyme carrier beads loaded with either wild-type or T40A mutated CALB. Reactions were run at 29° C. on a HLC rotating thermo block. Aliquots of 50 μl were taken, filtered through wool in a Pasteur pipette and diluted with 50 μl ethyl acetate prior to analysis. The 3-hexanon used as internal standard were present in the reaction solution throughout both reaction and analysis.
5 mM 3-hexanone was used as internal standard in the reaction mixtures together with 20 mM diol. Aliquots were taken during the reaction by taking 50 μl of reaction sample. The samples were filtered though wool together with 50 μl ethyl acetate, thereby any remaining enzyme were removed and the reaction samples were diluted by a factor of 2 prior to analysis.
The reactions catalyzed by the T40A-mutant were rerun with 100 mg enzyme carrier beads for determination of maximum monoester yield. The reactions with 2-methyl-1,3-propanediol and 2-phenyl-1,3-propanediol were rerun at 100 mM concentration of diol and 50 mg enzyme carrier beads, both with CALB wild type and CALB T40A-mutant. This was done in order to determine the enantiomeric excess.
All reactions were analyzed on GC, Hewlett Packard 5890 series II. Two different 25 m×0.32 mm WCOT fused silica columns were used, depending on the different substrates and products that were analyzed. A polar GC-column with CP Chirasil-Dex CB coating was used for the reactions with 1,2-ethanediol and 1,3-propanediol. A non-polar GC-column with CP-SIL 5CB coating was used for the reactions with 1,4-butanediol, 2-methyl-1,3-propanediol and 2-phenyl-1,3-propanediol.
(§1) The response factor for each diol was determined in relationship to 3-hexanone. When all diol and mono-ester had converted to di-ester, the response factor for the di-ester could be determined in relationship to […]. The concentration of mono-ester in each reaction was determined by subtracting the concentration of di-ester from the starting concentration of diol.
A great difference in concentration between acyl donor and diol was accomplished in the reactions by using ethyl acetate as solvent and acyldonor and a diol concentration of 20 mM. Therefore the reactions was considered to irreversible, following the reaction scheme:
[formula] A, B and C corresponds to diol, monoester and diester, respectively. k1 and k2 respectively corresponds to the reaction rates of the acylation of diol and monoester.
The reaction rates are dependent on enzyme concentrations and the kcat/KM towards the substrates. By fitting the concentrations measured over time into the equations and using the enzyme concentration determined by active site titration, the following results were obtained.

[2] = Enzyme-catalyzed acylation of 2-methyl-1,3-propanediol with vinyl butyrate as acyl donor (Example 3); conditions: 2-methyl-1,3-propanediol 10 mM, 200 mM vinyl butyrate in MTBE, 29° C.
Method: Each diol was dissolved to a concentration of 10 mM together with 2 mM of decane ≧98% from Fluka and 200 mM vinyl butyrate >99% from Fluka in MTBE 99.5% from Lab-Scan, which was used as acyl donor and solvent. Reactions were started by adding 4 ml reaction solution to 20 mg enzyme carrier beads loaded with either wild-type or T40A mutated CALB. Reactions were run at 29° C. on a HLC rotating thermo block. Aliquots of 50 μl were taken, filtered through wool in a Pasteur pipette and diluted with 50 μl ethyl acetate prior to analysis. The decane used as internal standard were present in the reaction solution throughout both reaction and analysis.
All reactions were analyzed on GC, Hewlett Packard 5890 series II. A 25 m×0.32 mm WCOT fused silica non-polar GC-column with CP-SIL 5CB coating was used for the reactions.
as §1, with “decane.” for “3-hexanone.”

[3] = Active site titration with inhibitor and activity measurement after inhibition (Example 1); conditions: for Share of immobilized enzyme inhibited (activity measurements after inhibition): 50 μM inhibitor in acetonitrile, activity with 1-butanol and vinyl butyrate in MTBE
Method: The amount of enzyme loaded on the carriers was confirmed by active site titration using the inhibitor methyl 4-methylumbelliferyl hexylphosphonate. Inhibitor from an ampoule stored in a freezer (−20° C.) was dissolved to a concentration of 50 μM in acetonitrile. The inhibitor was previously synthesized and used for active site titration of CALB as described in Magnusson, A. O., et al., Creating space for large secondary alcohols by rational redesign of Candida antarctica lipase B. Chembiochem, 2005. 6(6): p. 1051-1056 and Rotticci, D., et al., An active-site titration method for lipases. Biochimica Et Biophysica Acta-Molecular and Cell Biology of Lipids, 2000. 1483(1): p. 132-140.
Inhibition reactions were run in three separate vials each containing 50 mg enzyme carrier beads with immobilized CALB wild type and T40A-mutant. The wild type was run in one of the reaction vials, and the other two contained T40A-mutant. The enzymes were incubated in 1 ml of 50 μM inhibitor dissolved in acetonitrile. Each vial were sealed and covered in aluminium foil, to prevent light from damaging the fluorophore, and stored in continuous end over end. Aliquots were taken after 2, 5 and 9 days. […] Analysis was preformed by fluorescence using a Perkin Elmer LS 50 B fluorimeter. […] Fluorescence was also measured in two different control samples. Inhibitor, 50 μM in acetonitrile, was incubated without enzyme for control of background fluorescence from spontaneous hydrolysis of the methyl 4-methylumbelliferyl hexylphosphonate. In addition to this, 50 mg of each enzyme was incubated in acetonitrile without inhibitor for control of any background fluorescence from the immobilized enzyme. The total fluorescence from these samples was subtracted from the fluorescence measured in the inhibition reactions. […]
Remaining activity was measured after inhibition. […] For comparison, the reaction was repeated with the enzyme used for control of background fluorescence. […] The amounts of immobilized enzymes taken from the fluorescence controls used in the reactions were 2.8 mg of the wild type and 9.0 T40A. […]

| Molecule | Conversion at 3:1 (monoester:diester) [1] [%] | Conversion at 9:1 (monoester:diester) [1] [%] | Maximum monoester yield [1] [%] | Selectivity diol/monoester ([1]; 1,3-propanediol, ethyl acetate, listed as wild type) | Selectivity diol/monoester ([1]; 1,3-propanediol, ethyl acetate, listed as wild type CALB) | Maximum monoester yields [2] [%] | Share of immobilized enzyme inhibited (activity measurements after inhibition) [3] [%] | Selectivity diol/monoester ([1]; 1,3-propanediol, ethyl acetate) | Selectivity ratio diol/monoester T40A/WT ([1]; 1,3-propanediol, ethyl acetate) | Remaining activity after inhibition ([3]; 100 mM 1-butanol, 1 M vinyl butyrate in MTBE) |
| --- | --- | --- | --- | --- | --- | --- | --- | --- | --- | --- |
| B1 | 19 | 10 | 33 | 0.94 | 0.9 | 34 | 83 |  |  |  |
| B2 | 22 | 19 | 50 |  |  | 56 | 21 | 2.4 | 2.6 | to low to measure |
